Assay results taken from US20190247480A1.

Biological target: HLA-A3 (human)
Assay: assembly assay, stabilisation of HLA-A3 in T2-A3 lysates, W6/32 immunoprecipitation

Binder RLGLQVRKNK [Rho1L2 (…), modified RhoC peptide with Leu at position 2] has a C50 value (peptide concentration required for half maximal recovery of class I MHC molecules) of 4.

RAGLQVRKNK [Rho1 (…), native RhoC-derived peptide] was tested, and the C50 value (peptide concentration required for half maximal recovery of class I MHC molecules) was > 40.
